This assay relates to HEK293 cells. Nature of the assay: carnitine transporting activity assay of mouse OCTN2 expressed from plasmid DNA in HEK293 cells. Type of assay: cell-based. The settings on record: plasmid DNA expressing the protein introduced into HEK293 cells; Mock = cDNA-non-containing vector; FIG. 3. The procedure: Another embodiment of the therapeutic drug for systemic carnitine deficiency uses a compound that enhances the activity of the OCTN2 protein as the active ingredient. Such a compound can be screened as follows. For example, a plasmid expressing the OCTN2 protein is constructed, and this is introduced into HEK293 cells by the calcium phosphate method. Radiolabeled carnitine and a test compound are added to this transformant and the carnitine transporting activity into the cells is determined. A compound that can enhance the carnitine transporting activity is selected by comparing with the activity of the OCTN2 protein in the absence of the test compound. See Japanese Patent Application Hei 9-260972 and Hei 10-156660 for the detailed method.
Next, the effect this mutation has on the carnitine transporting activity was examined. Plasmid DNA expressing wild-type mouse OCTN2, and those expressing mutated OCTN2 were separately introduced into HEK293 cells, and then, carnitine transporting ability was measured similar to the assay of human OCTN2 described in Japanese Patent Application Hei 10-156660 (FIG. 3). […] However, both proteins were confirmed to be expressed at a similar amount by a western blotting using an antibody against the c-myc epitope sequence (NH2—EQKLISEEDL—COOH; SEQ ID NO:26) added to the C terminus (FIG. 4).

“Also recorded” adds a separate entry of the source.

B1: wild-type mouse OCTN2: mouse OCTN2 protein, amino acid sequence SEQ ID NO:3, sodium-ion dependent carnitine transporter (protein)
chain: MRDYDEVTAFLGEWGPFQRLIFFLLSASIIPNGFNGMSIVFLAGTPEHRCLVPHTVNLSSAWRNHSIPLETKDGRQVPQKCRRYRLATIANFSELGLEPGRDVDLEQLEQESCLDGWEYDKDVFLSTIVTEWDLVCKDDWKAPLTTSLFFVGVLMGSFISGQLSDRFGRKNVLFLTMGMQTGFSFLQVFSVNFEMFTVLFVLVGMGQISNYVAAFVLGTEILSKSIRIIFATLGVCIFYAFGFMVLPLFAYFIRDWRMLLLALTVPGVLCGALWWFIPESPRWLISQGRIKEAEVIIRKAAKINGIVAPSTIFDPSELQDLNSTKPQLHHIYDLIRTRNIRVITIMSIILWLTISVGYFGLSLDTPNLHGDIYVNCFLLAAVEVPAYVLAWLLLQYLPRRYSISAALFLGGSVLLFMQLVPSELFYLSTALVMVGKFGITSAYSMVYVYTAELYPTVVRNMGVGVSSTASRLGSILSPYFVYLGAYDRFLPYILMGSLTILTAILTLFFPESFGVPLPDTIDQMLRVKGIKQWQIQSQTRMQKDGEESPTVLKSTAF
B1: the carnitine transporting activity entry was “sodium-dependent carnitine transporting activity is seen; also recorded: shows a carnitine transporting activity similar to human OCTN2”.

B2: mutated OCTN2: jvs mouse OCTN2 in which the 352nd leucine (CTG) is mutated to arginine (CGG) (protein, UniProt Q9Z0E8 1-557, looked up, variant L352R)
chain: MRDYDEVTAFLGEWGPFQRLIFFLLSASIIPNGFNGMSIVFLAGTPEHRCLVPHTVNLSSAWRNHSIPLETKDGRQVPQKCRRYRLATIANFSELGLEPGRDVDLEQLEQESCLDGWEYDKDVFLSTIVTEWDLVCKDDWKAPLTTSLFFVGVLMGSFISGQLSDRFGRKNVLFLTMGMQTGFSFLQVFSVNFEMFTVLFVLVGMGQISNYVAAFVLGTEILSKSIRIIFATLGVCIFYAFGFMVLPLFAYFIRDWRMLLLALTVPGVLCGALWWFIPESPRWLISQGRIKEAEVIIRKAAKINGIVAPSTIFDPSELQDLNSTKPQLHHIYDLIRTRNIRVITIMSIILWRTISVGYFGLSLDTPNLHGDIYVNCFLLAAVEVPAYVLAWLLLQYLPRRYSISAALFLGGSVLLFMQLVPSELFYLSTALVMVGKFGITSAYSMVYVYTAELYPTVVRNMGVGVSSTASRLGSILSPYFVYLGAYDRFLPYILMGSLTILTAILTLFFPESFGVPLPDTIDQMLRVKGIKQWQIQSQTRMQKDGEESPTVLKSTAF
modifications: full-length
For B2, the carnitine transporting activity result is listed as “absolutely no activity”.

The values are drawn from US6790831B2, “Systemic carnitine deficiency gene and use thereof” (Chugai Seiyaku Kabushiki Kaisha, priority 1998, dated 2004).
